The source of these data is paper PMC3399532 (Prion, 2012).

This assay has as its target MoPrP-Fc (mouse, UniProt P04925 23-230). The assay is described as follows: ELISA. (In general: An ELISA detects its analyte on a solid surface through an enzyme-linked reagent.)

Sequence of MoPrP-Fc (P04925 23-230): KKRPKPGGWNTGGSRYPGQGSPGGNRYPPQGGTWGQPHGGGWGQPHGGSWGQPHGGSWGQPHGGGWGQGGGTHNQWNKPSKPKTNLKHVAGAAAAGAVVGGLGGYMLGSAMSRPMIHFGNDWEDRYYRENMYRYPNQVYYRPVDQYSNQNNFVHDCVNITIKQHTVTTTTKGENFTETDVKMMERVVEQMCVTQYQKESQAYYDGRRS

B1: mouse (Mo) Dpl (26–155) (domain or fragment)
chain: ARGIKHRFKWNRKVLPSSGGQITEARVAENRPGAFIKQGRKLDIDFGAEGNRYYAANYWQFPDGIYYEGCSEANVTKEMLVTSCVNATQAANQAEFSREKQDSKLHQRVLWRLIKEICSAKHCDFWLERG
Regarding B1, the binding result was “binds”.
